A short description of data set [1]: Bioavailability of r-hIL-18BP by i.p. and s.c. route. The data set is classed as in vivo, mouse. On the procedure: (§1) No validated animal model has been described for this condition. In the collagen-induced arthritis murine model the active dose for r-hIL-18BP administered intraperitoneally (i.p.) was determined to be 1 mg/Kg body weight. […] Altogether the expected pharmacologically active dose for a “humanized mice” treated by s.c. route with r-hIL-18BP is round 4.85 mg/kg. […] Although the guidance was initially written for extrapolating animal doses to healthy volunteers, its principles can be applied also to patients. […] Those doses will be likely also ineffective in AoSD patients considering that blood levels of IL-18 in AoSD are higher than those reported in the two above mentioned conditions.

For data set [2], the target named is T1, IL-18 (Homo sapiens, UniProt Q14116).
T1 sequence (Q14116 37-193): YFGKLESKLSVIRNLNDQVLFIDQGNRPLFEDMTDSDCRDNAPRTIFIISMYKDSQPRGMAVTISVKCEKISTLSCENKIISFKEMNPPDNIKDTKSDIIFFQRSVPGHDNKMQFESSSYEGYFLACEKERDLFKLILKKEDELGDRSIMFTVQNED
In words: Titration of free IL-18 as a function of IL-18BP level (free IL-18 ELISA). The data set is classed as binding. The note with it: 400 pg/mL IL-18 in PBS, 5% BSA. The arrangement: purchased. On the procedure:
Microplate wells are coated with an appropriate volume phosphate buffer saline solution containing recombinant human IL-18BP (r-hIL-18BP) as shown in SEQ ID NO 7, and less than 30% of N-terminal and/or C-terminal deletion variants of IL-18BP. A description of the r-hIL-18BP is provided in section 6.6.1 below. A description of the purification protocol is provided in section 6.6.2. Plates are incubated for a period of time at 4° C. and then stabilized with a blocking buffer containing bovine serum albumin or other appropriate blocking agents. Once the reaction is finished, microplates are sealed and stored at 4° C. until used for detection of free IL-18. […]
As an example, for a final reaction volume of 100 μl, dispense first 80 μl of biotin/antibody conjugate. […] The resulting reactions are then monitored with a microplate reader at an appropriate nanometer wavelength for absorbance or fluorescence of the produced reagent.
A constant quantity of recombinant IL-18 was titrated as a function of different and well-defined quantities of IL-18BP in order to understand when free IL-18 is not any more detectable. A PBS solution of 400 pg/mL IL-18 supplemented by 5% BSA was spiked with defined quantities of IL-18BP ranging from 0 to 10′000 pg/mL. The molar ratios were calculated according to the respective molecular weight of IL-18 and IL-18BP. […]
A general note: ELISA stands for enzyme-linked immunosorbent assay.

The target of data set [3] is T1, IL-18. The data set is described as follows: New BIAcore setup: IL-18BP bound to chip, affinity to IL-18. The data set is classed as binding. The arrangement: purchased. The settings on record: IL-18BP bound to BIAcore chip. An excerpt:
Following the above KD results obtain by titration, we tested the binding affinity of IL-18BP to IL-18 with a simpler BIAcore setup consisting of binding IL-18BP to the BIAcore chip and then testing its affinity to IL-18. The method setup is the contrary of Kim et al 2000 ^8, who bound IL-18 to the BIAcore chip with a monoclonal antibody and then tested the affinity of the complex antibody-IL-18 to IL-18BP.

Data set [4] relates to RA and Pso patients. The data set is described as follows: Previous human studies with r-hIL-18BP in RA and Pso patients. The class given is in vivo. The settings on record: 20 mg 3 times a week. Here is the method: as §1
Data set [5] has as its system G-CSF. The data set is described as follows: G-CSF in BALF by ELISA, exacerbation/tobacco smoke mouse model. The data set is classed as in vivo. On the procedure: Mice received either vehicle (PBS) or IL-18BP. IL-18BP was given subcutaneously to 3 groups of animals respectively at 1, 3 or 10 mg/kg 2 h prior to the initial tobacco smoke exposure from Day 1 to Day 4. Mice received orally either vehicle or dexamethasone (10 mg/kg) 1 h prior to each twice daily exposure. Mice received by intranasal administration either the vehicle or Polyinosinic:polycytidylic acid (2 mg/kg) 2 h prior to the initial air or tobacco smoke exposure on Day 4 to induce lung inflammation exacerbation. Tobacco smoke exposure was performed during the morning and afternoon as follow: Day 1 for 15 min, Day 2 for 25 min, Day 3 for 30 min and Day 4 for 30 min.
Following the above treatments, animals were terminally anaesthetised on Day 5. After that, a blood sample was taken via the sub-clavian artery (plasma) and the animals were bronchoalveloar lavaged with 3×0.4 ml of PBS for further cellular and cytokine/mediator analysis. Bronchoalveolar lavage supernatants were stored at −80° C. for cytokine/mediator analysis. Cells recovered from the BALF were counted using the Sysmex cell counter.
G-CSF is well acknowledged as key cytokine stimulating the survival, proliferation, differentiation, and function of neutrophil precursors and mature neutrophils. […] The presence of G-CSF in the BALF was monitored with a commercially available ELISA kit.

In data set [6] the target is T2, IL-18 (Mus musculus, UniProt P70380).
T2 sequence (P70380 36-192): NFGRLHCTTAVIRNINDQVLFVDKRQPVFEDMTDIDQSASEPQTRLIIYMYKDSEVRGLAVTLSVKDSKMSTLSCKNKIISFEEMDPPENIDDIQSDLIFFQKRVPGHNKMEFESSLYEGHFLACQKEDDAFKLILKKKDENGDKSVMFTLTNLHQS
The data set is described as follows: Dissociation constant (Kd) used for dose selection, mouse. The data set is classed as binding. Here is the method:
as §1

The test system of data set [7] is collagen-induced arthritis murine model. In words: Collagen-induced arthritis murine model and dose extrapolation. The data set is classed as in vivo, mouse. Here is the method:
as §1

The conditions of data set [8]: in vivo.

Some results are limits rather than exact numbers.

These results are taken from US12679888B2, “IL-18 binding protein (IL-18BP) and antibodies for treating inflammatory diseases” (AB2 BIO SA, priority 2015, dated 2026).

What is called bioavailability is the share of a dose that reaches the circulation, judged against a reference dose that is usually intravenous. Higher therefore signals good availability. As a reminder, the Kd is a measure of binding affinity in units of concentration. Low readings indicate higher affinity, high ones lower affinity.

B1: IL-18BP: soluble glycoprotein of 164 amino acids produced from a Chinese Hamster Ovary cell line; isoform a, SEQ ID NO 7 (protein, listed as Homo sapiens)
chain: TPVSQTTTAATASVRSTKDPCPSQPPVFPAAKQCPALEVTWPEVEVPLNGTLSLSCVACSRFPNFSILYWLGNGSFIEHLPGRLWEGSTSRERGSTGTQLCKALVLEQLTPALHSTNFSCVLVDPEQVVQRHVVLAQLWAGLRATLPPTQEALPSSHSSPQQQG
modifications: CHO glycosylation; MISC_FEATURE - Human interleukin-18 binding protein isoform a
In the case of B1, the bioavailability in data set [1] (i.p. route) was roughly 100%; in data set [1] (s.c. route), 55%. Besides, the “IL-18BP concentration at which 400 pg/mL IL-18 detection is near background detection level” value in data set [2] was no less than 6000 pg/mL. Moreover, the Ka in data set [3] is reported as 5.3 ± 1.2 10^+5/MS. The equilibrium dissociation constant (Kd) in data set [3] is 0.02 to 0.03 nM; in data set [6], 0.4 nM. Further, the clinical efficacy entry in data set [4] was “no efficacy”. The “G-CSF release in the lung airways (BALF)” value in data set [5] (IL-18BP s.c., day 5) was “mitigates G-CSF release in the lung airways”; in data set [5] (three tested doses 1, 3 or 10 mg/kg s.c.) it was “statistically relevant effect”. Also, the “effective s.c. dose in mice” value in data set [7] (adjusted for s.c. bioavailability) is on record as 1.82 mg/kg. In data set [7] (administered intraperitoneally (i.p.)), the active dose is on record as 1 mg/Kg body weight. For the same molecule, the human equivalent dose is 0.39 mg/kg in data set [7] (allometric murine conversion factor of 12.3) and 27.3 mg in data set [7] (for a 70 Kg individual). Further, the “expected pharmacologically active dose for a humanized mice” value in data set [7] (s.c. route, corrected for Kd difference) is recorded as roughly 4.85 mg/kg. Also, the median half-life in data set [8] is roughly 40 h.
